Source: the supplement of paper PMC10567573

B1: EPB41L3 (parent)
chain: GSKFRYSGRTQAQTRRASALIDRP

Variants of: B1
Experiment: protein stability index of a GFP-peptide fusion (GPS, HEK-293T) (PSI 1-6); higher = more stable
Conditions: c terminus: a fixed tail appended
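Also: lentivirally expressed fusions sorted by FACS into six bins by GFP to DsRed ratio, PSI derived from sequencing read proportions per bin multiplied by bin number.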

Protein stability index of substitutions, site by site:
A19: N 3.4 | W 2.45 | Q 3.22 | K 3.39 | H 3.26 | L 3.12 | M 3.07 | V 2.42 | C 2.74 | Y 2.07 | I 3.04 | R 3.43 | D 3.6 | S 3.41 | G 2.91 | E 3.28 | P 2.68 | F 2.41 | T 3.3
R16: Q 3.31 | C 2.52 | G 3.87 | S 3.08 | L 3.11 | M 2.67 | V 2.34 | W 2.41 | Y 2.78 | N 3.42 | T 3.4 | D 3.56 | K 2.83 | H 3.32 | A 2.63 | F 2.9 | P 3.15 | E 3.34 | I 2.72
A17: I 3.25 | F 2.52 | Y 2.54 | P 2.96 | N 3.19 | M 3.02 | L 2.65 | G 3.22 | C 2.09 | K 3.16 | R 3.25 | W 2.21 | Q 3.58 | H 2.57 | E 3.54 | D 3.41 | T 2.99 | S 3.12 | V 2.66
S18: C 2.5 | M 2.71 | T 2.29 | K 3.29 | H 3.42 | W 2.58 | Q 3.19 | Y 2.27 | G 3.54 | L 3.01 | D 3.52 | P 3.73 | I 2.7 | N 3.25 | V 2.85 | F 2.16 | R 3.08 | E 3.62 | A 3.02
T14: H 2.77 | L 2.7 | K 3.44 | G 3.17 | F 2.8 | W 2.22 | P 2.62 | V 3.19 | N 3.72 | E 3.21 | C 1.88 | S 2.67 | M 2.29 | Q 2.81 | R 3.44 | A 3.25 | D 3.41 | I 2.69 | Y 2.73
R15: K 2.83 | T 3.58 | H 2.97 | Q 2.9 | M 3.21 | N 3.68 | F 2.44 | G 2.81 | V 2.99 | I 2.66 | P 3.3 | L 2.64 | W 2.45 | C 2.06 | A 3.25 | Y 2.54 | D 3.2 | E 3.57 | S 2.81
L20: S 3.46 | I 3.19 | A 3.29 | P 3.15 | E 3.89 | C 3.12 | V 3.52 | Y 3.02 | M 3.59 | H 3.37 | D 3.84 | K 3.79 | W 3.23 | Q 3.79 | N 3.78 | T 3.62 | R 3.28 | F 2.65 | G 3.16
Q13: N 3.39 | K 3.19 | C 2.98 | P 2.69 | D 3.08 | A 2.84 | L 2.91 | M 2.47 | R 3.25 | G 3.49 | W 1.97 | F 2.69 | E 3.27 | V 3.53 | T 2.73 | H 2.65 | S 3.27 | Y 2.46 | I 2.9
I21: C 2.64 | A 3.78 | D 3.58
A12: W 2.25 | T 2.93 | R 3.42 | P 3.17 | L 3.38 | V 1.93 | S 3.41 | Y 2.89 | Q 3.06 | N 3.08 | M 2.73 | K 3.15
